# Laboratory results: patent US20100261182A1
# T1: 5-TAMRA-MpTPpYV-NH2 substrate peptide (bis-phosphorylated)
# T1 chain: MTPYV
# B1: His-PPM1E (PPM1E phosphatase with an N-terminal His-tag, expressed in Sf9 cells) (protein)
# chain: MAGCIPEEKTYRRFLELFLGEFRGPCGGGEPEPEPEPEPEPEPESEPEPEPELVEAEAAEASVEEPGEEAATVAATEEGDQEQDPEPEEEAAVEGEEEEEGAATAAAAPGHSAVPPPPPQLPPLPPLPRPLSERITREEVEGESLDLCLQQLYKYNCPSFLAAALARATSDEVLQSDLSAHYIPKETDGTEGTVEIETVKLARSVFSKLHEICCSWVKDFPLRRRPQLYYETSIHAIKNMRRKMEDKHVCIPDFNMLFNLEDQEEQAYFAVFDGHGGVDAAIYASIHLHVNLVRQEMFPHDPAEALCRAFRVTDERFVQKAARESLRCGTTGVVTFIRGNMLHVAWVGDSQVMLVRKGQAVELMKPHKPDREDEKQRIEALGGCVVWFGAWRVNGSLSVSRAIGDAEHKPYICGDADSASTVLDGTEDYLILACDGFYDTVNPDEAVKVVSDHLKENNGDSSMVAHKLVASARDAGSSDNITVIVVFLRDMNKAVNVSEESDWTENSFQGGQEDGGDDKENHGECKRPWPQHQCSAPADLGYDGRVDSFTDRTSLSPGSQINVLEDPGYLDLTQIEASKPHSAQFLLPVEMFGPGAPKKANLINELMMEKKSVQSSLPEWSGAGEFPTAFNLGSTGEQIYRMQSLSPVCSGLENEQFKSPGNRVSRLSHLRHHYSKKWHRFRFNPKFYSFLSAQEPSHKIGTSLSSLTGSGKRNRIRSSLPWRQNSWKGYSENMRKLRKTHDIPCPDLPWSYKIE
# B2: Full length PPM1E (SEQ ID NO: 1) overexpressed in H4 neuroglioma cells and rat hippocampal primary neurons (protein)
# chain: MAGCIPEEKTYRRFLELFLGEFRGPCGGGEPEPEPEPEPEPEPESEPEPEPELVEAEAAEASVEEPGEEAATVAATEEGDQEQDPEPEEEAAVEGEEEEEGAATAAAAPGHSAVPPPPPQLPPLPPLPRPLSERITREEVEGESLDLCLQQLYKYNCPSFLAAALARATSDEVLQSDLSAHYIPKETDGTEGTVEIETVKLARSVFSKLHEICCSWVKDFPLRRRPQLYYETSIHAIKNMRRKMEDKHVCIPDFNMLFNLEDQEEQAYFAVFDGHGGVDAAIYASIHLHVNLVRQEMFPHDPAEALCRAFRVTDERFVQKAARESLRCGTTGVVTFIRGNMLHVAWVGDSQVMLVRKGQAVELMKPHKPDREDEKQRIEALGGCVVWFGAWRVNGSLSVSRAIGDAEHKPYICGDADSASTVLDGTEDYLILACDGFYDTVNPDEAVKVVSDHLKENNGDSSMVAHKLVASARDAGSSDNITVIVVFLRDMNKAVNVSEESDWTENSFQGGQEDGGDDKENHGECKRPWPQHQCSAPADLGYDGRVDSFTDRTSLSPGSQINVLEDPGYLDLTQIEASKPHSAQFLLPVEMFGPGAPKKANLINELMMEKKSVQSSLPEWSGAGEFPTAFNLGSTGEQIYRMQSLSPVCSGLENEQFKSPGNRVSRLSHLRHHYSKKWHRFRFNPKFYSFLSAQEPSHKIGTSLSSLTGSGKRNRIRSSLPWRQNSWKGYSENMRKLRKTHDIPCPDLPWSYKIE
# Columns and labels:
# [1] = biological target: T1, 5-TAMRA-MpTPpYV-NH2 substrate peptide …
# [2] = biological target: 5-TAMRA-MpTPpYV-NH2 substrate peptide (bis-phosphorylated); assay: cell-based or functional assay
# [3] = biological target: CaMKII alpha isoform (about 50 kDa), phosphorylated at Thr286
# [4] = biological target: CaMKII beta isoform (about 57 kDa), phosphorylated at Thr286
binder,measurement,setting,value
B1,polarization at a concentration of PPM1E of 33 nM,[1],a polarization of about 147 mP (milli-Polarization) was measured
same,polarization at a concentration of PPM1E of 0.8 µM,[1],the polarization decreased to about 123 mP
same,"IC50 (EC50) of the PPM1E titration, decrease of polarization",[2],0.16 µM
B2,dephosphorylation of pCaMKII alpha band (western blot),[3],PPM1E phosphatase is dephosphorylating the beta isoform (57 kDa) as well as the alpha isoform (50 kDa) of CaMKII
same,phosphorylation of CaMKII relative to wildtype HC neurons (western blot),[3],the phosphorylation of CaMKII is decreasing to 50% of the phosphorylation status of wildtype cells by increasing the level of PPM1E expression 12 times
same,dephosphorylation of pCaMKII beta band (western blot),[4],PPM1E phosphatase is dephosphorylating the beta isoform (57 kDa) as well as the alpha isoform (50 kDa) of CaMKII
same,phosphorylation of CaMKII relative to wildtype HC neurons (western blot),[4],the phosphorylation of CaMKII is decreasing to 50% of the phosphorylation status of wildtype cells by increasing the level of PPM1E expression 12 times
